Experiment [1] has as its target T1, uPARAP (Homo sapiens, UniProt Q9UBG0).
T1 sequence (Q9UBG0 31-1479): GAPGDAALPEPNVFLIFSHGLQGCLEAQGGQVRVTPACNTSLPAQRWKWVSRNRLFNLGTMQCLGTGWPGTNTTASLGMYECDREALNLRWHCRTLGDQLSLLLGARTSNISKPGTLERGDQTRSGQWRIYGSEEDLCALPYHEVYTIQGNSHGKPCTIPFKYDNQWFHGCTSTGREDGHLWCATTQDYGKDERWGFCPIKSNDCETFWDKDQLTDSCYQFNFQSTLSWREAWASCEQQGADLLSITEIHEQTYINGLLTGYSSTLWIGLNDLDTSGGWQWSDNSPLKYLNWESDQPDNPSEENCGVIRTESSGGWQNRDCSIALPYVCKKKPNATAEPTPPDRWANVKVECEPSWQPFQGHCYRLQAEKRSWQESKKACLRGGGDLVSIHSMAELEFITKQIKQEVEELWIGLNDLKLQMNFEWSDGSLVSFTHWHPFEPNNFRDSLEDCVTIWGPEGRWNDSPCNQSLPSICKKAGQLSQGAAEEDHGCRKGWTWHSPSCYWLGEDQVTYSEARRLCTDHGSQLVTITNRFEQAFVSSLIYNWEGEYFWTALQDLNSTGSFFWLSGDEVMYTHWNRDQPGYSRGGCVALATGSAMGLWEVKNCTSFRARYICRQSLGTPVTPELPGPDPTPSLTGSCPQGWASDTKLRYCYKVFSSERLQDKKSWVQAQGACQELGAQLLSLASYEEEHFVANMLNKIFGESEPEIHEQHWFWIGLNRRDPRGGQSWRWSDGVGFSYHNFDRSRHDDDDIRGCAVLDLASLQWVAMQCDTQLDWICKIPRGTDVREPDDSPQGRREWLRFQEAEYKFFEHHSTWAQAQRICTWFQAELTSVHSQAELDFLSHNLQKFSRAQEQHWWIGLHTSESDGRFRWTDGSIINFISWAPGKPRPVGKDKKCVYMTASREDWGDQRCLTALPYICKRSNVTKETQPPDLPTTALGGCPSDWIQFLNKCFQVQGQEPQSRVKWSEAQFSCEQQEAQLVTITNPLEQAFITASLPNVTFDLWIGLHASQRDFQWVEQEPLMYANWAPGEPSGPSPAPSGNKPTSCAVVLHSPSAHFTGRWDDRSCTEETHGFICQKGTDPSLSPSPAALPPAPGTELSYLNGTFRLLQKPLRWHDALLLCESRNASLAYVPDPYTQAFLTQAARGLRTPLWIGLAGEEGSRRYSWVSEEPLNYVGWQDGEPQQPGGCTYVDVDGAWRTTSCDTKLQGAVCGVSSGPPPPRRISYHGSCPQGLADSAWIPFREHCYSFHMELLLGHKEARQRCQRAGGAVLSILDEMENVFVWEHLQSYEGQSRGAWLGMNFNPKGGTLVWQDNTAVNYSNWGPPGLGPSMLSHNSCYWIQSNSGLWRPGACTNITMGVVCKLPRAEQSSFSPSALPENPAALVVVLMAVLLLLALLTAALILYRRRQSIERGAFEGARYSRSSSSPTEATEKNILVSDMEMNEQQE
Description: Western blotting of MG63 cell lysate. The format is binding. More on the design: endogenous in cells; host or cells: MG63 human osteosarcoma cells. The note with it: detergent lysate of uPARAP-positive MG63 human osteosarcoma cells. How it is done: For Western blotting, a detergent cell lysate prepared from uPARAP-positive MG63 human osteosarcoma cells was analyzed, using identical concentrations of “2h9 cloned” and “2h9 original” as the primary antibodies. […] No reaction is seen in the absence of primary antibody (negative control).
(A western blot detects proteins with antibodies after separation by electrophoresis.)

Experiment [2] concerns the target T2, soluble truncated uPARAP protein containing the first 3 N-terminal domains of human uPARAP (Homo sapiens, UniProt Q9UBG0).
T2 construct: a soluble truncated uPARAP protein containing the first 3 N-terminal domains of human uPARAP
T2 sequence (Q9UBG0 31-365): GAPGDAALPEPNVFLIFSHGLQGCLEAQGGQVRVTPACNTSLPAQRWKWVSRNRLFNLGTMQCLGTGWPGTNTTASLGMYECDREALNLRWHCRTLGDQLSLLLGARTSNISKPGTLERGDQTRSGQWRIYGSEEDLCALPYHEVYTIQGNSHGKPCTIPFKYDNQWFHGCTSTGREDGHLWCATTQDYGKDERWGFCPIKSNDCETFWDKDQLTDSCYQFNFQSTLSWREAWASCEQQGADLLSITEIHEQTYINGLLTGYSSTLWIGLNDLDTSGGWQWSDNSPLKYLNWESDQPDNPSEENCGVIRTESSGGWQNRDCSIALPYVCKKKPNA
Description: ELISA analysis of uPARAP-binding of mAbs. The note with it: after reduction step of conjugation, or in ADC form. How it is done: Untreated mAbs (2h9 or aTNP), same mAbs subjected to the reduction procedure of conjugation (see above), or ADCs 2h9-vc-MMAE or aTNP-vc-MMAE, were then employed as a primary antibody, followed by a HRP-conjugated rabbit anti-mouse Ig secondary antibody. Finally an o-phenylenediamine dihydrochloride-containing substrate solution was added, and the color reaction was stopped by adding 1M H2SO4. Plates were read at 492 nm using a plate reader.
Background: In an ELISA, binding on a coated surface is turned into a signal by an enzyme label.

Experiment [3] has as its target T1, uPARAP. Description: Antibody reactivity with uPARAP. The note with it: listed as 2h9. The format is binding.
Experiment [4] has as its target T3, soluble recombinant protein consisting of the three N-terminal domains of uPARAP (CysR, FN-II and CTLD-1) (Homo sapiens, UniProt Q9UBG0).
T3 construct: A soluble recombinant protein consisting of the three n-terminal domains of uPARAP (CysR, FN-II and CTLD-1)
T3 sequence (Q9UBG0 41-360 limits assumed): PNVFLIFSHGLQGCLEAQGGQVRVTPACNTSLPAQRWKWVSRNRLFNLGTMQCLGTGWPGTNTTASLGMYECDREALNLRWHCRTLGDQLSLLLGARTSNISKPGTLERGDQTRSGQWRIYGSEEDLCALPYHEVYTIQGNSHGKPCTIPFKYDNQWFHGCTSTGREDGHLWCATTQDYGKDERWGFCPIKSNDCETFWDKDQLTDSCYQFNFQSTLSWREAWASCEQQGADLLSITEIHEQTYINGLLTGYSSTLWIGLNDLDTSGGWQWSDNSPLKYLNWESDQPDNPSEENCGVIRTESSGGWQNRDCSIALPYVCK
The note with it: immobilized 2h9, soluble three-domain protein; Jürgensen et al., 2011; cited from earlier work.

The values below come from US11819552B2, “Antibody-drug conjugates targeting uPARAP” (RIGSHOSPITALET, priority 2016, dated 2023).

“Also recorded” adds a separate entry of the source.

B1: mAb 2h9: mouse monoclonal IgG1k anti-uPARAP antibody clone 2.h.9: F12, produced by hybridoma cell culture (protein)
light: DIQMTQSPASQSASLGESVTITCLASQTIGTWLAWYQQKPGKSPQLLIYAATTLTDGVPSRFSGAGSGTKFSLKISSLQAEDFASYFCQEFFSTPFTFGSGTKLELKRADAAPTVSIFPPSSEQLTSGGASVVCFLNNFYPKDINVKWKIDGGERQNGVLNSWTDQDSKDSTYSMSSTLTLTKDEYERHNSYTCEATHKTSTSPIVKSFNRNEC
heavy: QVQLQQPGTELVRPGLSVKLSCKASGYTFTSYWMNWVKQRPGQGLEWIGMIHPSNDEKRINQKFKDKATLTVDKFSSTVYMQVSSPTSEDSAVYYCARGGGDYVGDYALDFWGQGTSVTVSSAKTTPPSVYPLAPGSAAQTNSMVTLGCLVKGYFPEPVTVTWNSGSLSSGVHTFPAVLQSDLYTLSSSVTVPSSTWPSETVTCNVAHPASSTKVDKKIVPRDCGCKPCICTVPEVSSVFIFPPKPKDVLTITLTPKVTCVVVDISKDDPEVQFSWFVDDVEVHTAQTQPREEQFNSTFRSVSELPIMHQDWLNGKEFKCRVNSAAFPAPIEKTISKTKGRPKAPQVYTIPPPKEQMAKDKVSLTCMITDFFPEDITVEWQWNGQPAENYKNTQPIMDTDGSYFIYSKLNVQKSNWEAGNTFTCSVLHEGLHNHHTEKSLSHSPGK
For B1, in the experiment with uPARAP [1], the “Reactivity in Western blotting” value was “react specifically with the uPARAP protein”. The “Affinity towards uPARAP following conjugation procedure” value in experiment [2] is “retained affinity”; in experiment [2] (listed as 2h9), “negligible loss of affinity”. For the same molecule, in the experiment with uPARAP [3], the “Reactivity with human uPARAP” value was “reactive against both human and murine uPARAP; also recorded: reacts with both human and mouse uPARAP”. Further, the “Binding in BIAcore setup” value in experiment [4] is on record as “binds to immobilized 2h9”.
